From US10907134B2, “Mutated genes for the catalytic protein of oplophorus luciferase and use thereof” (JNC CORPORATION, priority 2013, dated 2021) come the findings set out here.

Experiment [1] in a line: Luminescence activity of KAZ mutants (pCold II, E. coli) in supernatant and precipitate of crude enzyme solution. The class given is biochemical. Conditions: Table 3, pCold II, E. coli BL21, 0.5 μg coelenterazine, 60 seconds; for Relative Luminescence Activity (Imax) Precipitate: 5 μL precipitate; for Relative Luminescence Activity (Imax) Supernatant: 5 μL supernatant. As for the experimental part:
In order to express the KAZ mutants in E. coli, the recombinant plasmid prepared in EXAMPLE 3 was used. The E. coli BL21 strain (Novagen, Madison, Wis.) was used as a host cell. The BL21 strain carrying the recombinant plasmid was incubated in 5 mL of Luria-Bertani medium (hereinafter designated as LB medium) containing ampicillin (50 μg/mL) at 37° C. for 18 hours. This seed culture, 0.1 mL, was inoculated to 10 mL of LB medium and incubated for 3 hours, followed by cooling in an ice-water bath for 1 hour. IPTG was added to the culture medium at a final concentration of 1 mM, followed by incubation at 15° C. for further 20 hours. After completion of the incubation, 1 mL of the cultured medium was harvested by centrifugation at 10,000 rpm for 2 minutes. The thus collected E. coli cells were suspended in 0.5 mL of 30 mM Tris-HCl (pH 7.6)-10 mM EDTA (manufactured by Wako Pure Chemical Industries, Ltd.) (hereinafter designated as TE). The E. coli cells were disrupted by sonication for 3 seconds using a Branson Model 250 Sonifier (Danbury, Conn.) to give a crude enzyme solution. After 0.5 mL of the crude enzyme solution was further centrifuged at 10,000 rpm for 2 minutes to separate the supernatant from the precipitate, the precipitate was suspended in 0.5 mL of TE. Then 20 μL each of the supernatant and precipitate were analyzed by SDS-PAGE to confirm the presence or absence of soluble and insoluble proteins. The results are shown in FIG. 1, wherein M and 1 to 17 denote: M: molecular weight size markers; 1: KAZ; 2 KAZ-A4E; 3: KAZ-Q11R; 4: KAZ-Q18L; 5: KAZ-L27V; 6: KAZ-A33N; 7: KAZ-K43R; 8: KAZ-V44I; 9: KAZ-A54I; 10: KAZ-F68D; 11: KAZ-L72Q; 12: KAZ-M75K; 13: KAZ-I90V; 14: KAZ-P115E; 15: KAZ-Q124K; 16: KAZ-Y138I; 17: KAZ-N166R and 18: dnKAZ.
A luminescence reaction was started by the addition of 5 μL each of the supernatant and precipitate obtained in EXAMPLE 4 to 100 μL of TE containing 0.5 μg of coelenterazine (manufactured by JNC Corp.). The luminescence activity was measured for 60 seconds using a luminometer (manufactured by Atto Corp.: AB2200) and expressed in terms of relative luminescence activity (Imax).
To express the KAZ mutants with two amino acid substitutions and three amino acid substitutions in E. coli using a pCold II vector, the recombinant plasmid constructed in EXAMPLE 13 and pCold-V44I-KAZ, pCold-A54I-KAZ, pCold-Y138I-KAZ prepared in EXAMPLE 3 were used. The supernatant and precipitate of each crude enzyme solution were prepared in the same manner as EXAMPLE 4, using the E. coli BL21 starin (Novagen, Madison, Wis.) as a host cell. The supernatant and precipitate, 20 μL each, were subjected to SDS-PAGE analysis to confirm the presence or absence of soluble proteins and insoluble proteins. In FIG. 3, M and 1 to 9 are as follows. M: molecular weight markers; 1: dnKAZ; 2: KAZ; 3: KAZ-V44I-A54I; 4: KAZ-V44I-Y138I; 5: KAZ-A54I-Y138I; 6: KAZ-V44I-A54I-Y138I; 7: KAZ-V44I; 8: KAZ-A54I; and 9: KAZ-Y138I.
The luminescence activities of 5 μL each of the supernatant and precipitate obtained in EXAMPLE 14 were determined in the same manner as EXAMPLE 5. The luminescence activity was assayed with a luminometer (manufactured by Atto Inc.: AB2200) for 60 seconds, and the maximum intensity of luminescence (Imax) was shown as relative luminescence activity.

The test system of a further experiment is CHO-K1 cells. The experiment can be described thus: Luminescence activity of KAZ mutants expressed in animal culture cells with signal peptide of Gaussia luciferase for secretion. The format is cell-based, Chinese hamster. The settings on record: Table 5, pcDNA3-GLsp- vectors, CHO-K1, 48 hours, 0.5 μg coelenterazine; for Relative Luminescence Activity (Imax) (%) Cell Extracts: 5 μL cell extracts; for Relative Luminescence Activity (Imax) (%) Culture Medium: 5 μL culture medium. As for the experimental part: Chinese hamster ovary cell line CHO-K1 was cultured in Ham's F-12 medium (manufactured by Wako Pure Chemical Industries, Ltd.) supplemented with 10% (v/v) fetal bovine serum (manufactured by Biowest Inc.). The CHO-K1 cells were plated in a 6-well plate in 1×10^5 cells/well/2 mL medium (n=2) and cultured in an incubator at 37° C. in 5% (v/v) CO2. After 24 hours, the purified recombinant plasmid was transfected to CHO-K1 cells using a FuGene HD transfection kit (manufactured by Promega Corp.), which was provided for subsequent experiment. Specifically, 1 μg of the recombinant plasmid pGL4.13 [Luc2/sv40], 0.1 μg of the internal standard vector and 3 μL of FuGene HD were added to 100 μL of the medium, which was allowed to stand at room temperature for 15 minutes. Subsequently, 100 μL of the DNA-FuGene complex was added to the cells in the 6 wells. After incubation for 48 hours, the culture medium was collected. On the other hand, the KAZ mutants expressed in the cells were washed 3 times with 3 mL of 1×PBS, then suspended in 1 mL of 1×PBS and disrupted on ice by ultrasonication, which was used as enzyme solutions of the cell-extracts of KAZ mutants.
A luminescence reaction was started by adding 5 μL of the culture media and cell extracts obtained in EXAMPLE 10 to 100 μL of 30 mM Tris-HCl (pH 7.6)-10 mM EDTA (manufactured by Wako Pure Chemical Industries, Ltd.) containing 0.5 μg of coelenterazine (manufactured by INC Corp.). The luminescence activity was determined using a luminometer (manufactured by Atto Inc.: AB2200) for 60 seconds, and the maximum intensity of luminescence (Imax) was defined as a percentage.
Culture media of the KAZ mutants with two amino acid substitutions and KAZ mutants with three amino acid substitutions and the enzyme solutions of the cell-extracts of KAZ mutants were prepared in the same manner as EXAMPLE 10.
In the resultant enzyme solutions and the enzyme solutions of the cell-extracts of KAZ mutants, luminescence activities were determined in the same manner as EXAMPLE 11.

The nature of experiment [2]: Luminescence activity of ZZ-fused KAZ mutants in crude enzyme solutions. The class given is biochemical. Conditions: Table 4; ZZ-fused (pCold-ZZ-P-); 1 μL crude enzyme solution, 1 mM DTT; 1 μg coelenterazine. As for the experimental part:
To express the ZZ-fused KAZ mutants in E. coli, the recombinant plasmid prepared in EXAMPLE 6 was used. Crude enzyme solutions were prepared in the same manner as EXAMPLE 4 using the E. coli BL21 strain (Novagen, Madison, Wis.) as a host cell. The resultant crude enzyme solution, 5 μL, was subjected to SDS-PAGE analysis to confirm expression of the proteins (FIG. 2). In FIG. 2, M and 1 to 18 are the same as described in FIG. 1.
DTT was added to the crude enzyme solution obtained in EXAMPLE 7 at a final concentration of 1 mM and the mixture was allowed to stand in an ice water for more than 5 hours. A luminescence reaction was started by adding 1 μL of the crude enzyme solution to 100 μL of TE containing 1 μg of coelenterazine (manufactured by JNC Corp.). The luminescence activity was determined using a luminometer (manufactured by Atto Inc.: AB2200) for 60 seconds, and the maximum intensity of luminescence (Imax) was shown as relative luminescence activity.
To express the ZZ-fused KAZ mutants in E. coli, the recombinant plasmid constructed in EXAMPLE 16 and pCold-ZZ-P-V44I-KAZ, pCold-ZZ-P-A54I-KAZ, pCold-ZZ-P-Y138I-KAZ prepared in EXAMPLE 6 were used. Crude enzyme solutions were prepared in the same manner as EXAMPLE 7, using the E. coli BL21 strain (Novagen, Madison, Wis.) as a host cell. DTT was added to the crude enzyme solutions at a final concentration of 1 mM. The mixtures were allowed to stand over 5 hours on ice, and luminescence activities were then assayed. The luminescence activities were determined by the method described in EXAMPLE 8. Also, 5 μL of the resultant crude enzyme solutions were subjected to SDS-PAGE analysis to confirm protein expression (FIG. 4). In FIG. 4, M and 1 to 9 are as follows. M: molecular weight size markers; 1: ZZ-P-KAZ; 2: ZZ-P-KAZ-V44I; 3: ZZ-P-KAZ-A54I; 4: ZZ-P-KAZ-Y138I; 5: ZZ-P-KAZ-V44I-A54I; 6: ZZ-P-KAZ-V44I-Y138I; 7: ZZ-P-KAZ-A54I-Y138I; 8: ZZ-P-KAZ-V44I-A54I-Y138I; and 9: ZZ-P-dnKAZ.

B1: KAZ-Q11R: KAZ with single amino acid substitution Q11R (protein)
chain: FTLADFVGDWRQTAGYNQDQVLEQGGLSSLFQALGVSVTPIQKVVLSGENGLKADIHVIIPYEGLSGFQMGLIEMIFKVVYPVDDHHFKIILHYGTLVIDGVTPNMIDYFGRPYPGIAVFDGKQITVTGTLWNGNKIYDERLINPDGSLLFRVTINGVTGWRLCENILA
Turning to B1, in experiment [1], the “Relative Luminescence Activity (Imax) Precipitate” value is on record as 0.3 and the “Relative Luminescence Activity (Imax) Supernatant” value worked out at 2.0. In the experiment on CHO-K1 cells, the “Relative Luminescence Activity (Imax) (%) Cell Extracts” value was found to be 0.1% and the “Relative Luminescence Activity (Imax) (%) Culture Medium” value is given as “less than 0.01%”. For the same molecule, the “Relative Luminescence Activity (Imax)” value in experiment [2] was 1.8.

B2: KAZ-L27V: KAZ with single amino acid substitution L27V (protein)
chain: FTLADFVGDWQQTAGYNQDQVLEQGGVSSLFQALGVSVTPIQKVVLSGENGLKADIHVIIPYEGLSGFQMGLIEMIFKVVYPVDDHHFKIILHYGTLVIDGVTPNMIDYFGRPYPGIAVFDGKQITVTGTLWNGNKIYDERLINPDGSLLFRVTINGVTGWRLCENILA
With B2, in experiment [1], the “Relative Luminescence Activity (Imax) Precipitate” value was found to be 0.1 and the “Relative Luminescence Activity (Imax) Supernatant” value amounted to 0.1. Further, in the experiment on CHO-K1 cells, the “Relative Luminescence Activity (Imax) (%) Cell Extracts” value was found to be 0.02% and the “Relative Luminescence Activity (Imax) (%) Culture Medium” value was “less than 0.01%”. Besides, the “Relative Luminescence Activity (Imax)” value in experiment [2] is listed as 0.1.

B3: KAZ-A33N: KAZ with single amino acid substitution A33N (protein)
chain: FTLADFVGDWQQTAGYNQDQVLEQGGLSSLFQNLGVSVTPIQKVVLSGENGLKADIHVIIPYEGLSGFQMGLIEMIFKVVYPVDDHHFKIILHYGTLVIDGVTPNMIDYFGRPYPGIAVFDGKQITVTGTLWNGNKIYDERLINPDGSLLFRVTINGVTGWRLCENILA
In the case of B3, in experiment [1], the “Relative Luminescence Activity (Imax) Precipitate” value turned out to be 0.4 and the “Relative Luminescence Activity (Imax) Supernatant” value is given as 1.0. In addition, in the experiment with CHO-K1 cells, the “Relative Luminescence Activity (Imax) (%) Cell Extracts” value is given as 0.1% and the “Relative Luminescence Activity (Imax) (%) Culture Medium” value is recorded as “less than 0.01%”. In addition, the “Relative Luminescence Activity (Imax)” value in experiment [2] was 1.0.

B4: KAZ-Q18L: KAZ with glutamine at position 18 substituted by leucine (protein, listed as Oplophorus gracilirostris)
chain: FTLADFVGDWQQTAGYNLDQVLEQGGLSSLFQALGVSVTPIQKVVLSGENGLKADIHVIIPYEGLSGFQMGLIEMIFKVVYPVDDHHFKIILHYGTLVIDGVTPNMIDYFGRPYPGIAVFDGKQITVTGTLWNGNKIYDERLINPDGSLLFRVTINGVTGWRLCENILA
On to B4, for which, in experiment [1], the “Relative Luminescence Activity (Imax) Precipitate” value was 0.2 and the “Relative Luminescence Activity (Imax) Supernatant” value is given as 1.0. For the same molecule, in the experiment with CHO-K1 cells, the “Relative Luminescence Activity (Imax) (%) Cell Extracts” value was found to be 0.02% and the “Relative Luminescence Activity (Imax) (%) Culture Medium” value is recorded as “less than 0.01%”. Further, the “Relative Luminescence Activity (Imax)” value in experiment [2] was found to be 0.3.

B5: KAZ-K43R: KAZ with single amino acid substitution K43R (protein)
chain: FTLADFVGDWQQTAGYNQDQVLEQGGLSSLFQALGVSVTPIQRVVLSGENGLKADIHVIIPYEGLSGFQMGLIEMIFKVVYPVDDHHFKIILHYGTLVIDGVTPNMIDYFGRPYPGIAVFDGKQITVTGTLWNGNKIYDERLINPDGSLLFRVTINGVTGWRLCENILA
Consider B5, for which, in experiment [1], the “Relative Luminescence Activity (Imax) Precipitate” value stood at 0.2 and the “Relative Luminescence Activity (Imax) Supernatant” value worked out at 1.8. Besides, in the experiment with CHO-K1 cells, the “Relative Luminescence Activity (Imax) (%) Cell Extracts” value came out at 0.1% and the “Relative Luminescence Activity (Imax) (%) Culture Medium” value is listed as “less than 0.01%”. Further, the “Relative Luminescence Activity (Imax)” value in experiment [2] is reported as 0.6.
